In PMC2865030:
pKd: −log10 of the molar value.

Experiments:
Experiment in all cases: ITC
[1] = biological target: yeast Hsp90 (wild type, His-tagged) (yeast) (UniProt P02829)
[2] = biological target: Tah1 (TPR-containing protein associated with Hsp90) (S. cerevisiae) (UniProt P25638)
[3] = biological target: yeast Hsp90 M705V (His-tagged) (yeast) (UniProt P02829)

mouse CHIP (C-terminal of Hsp70-interacting protein), sequence (Q9WUD1 whole entry): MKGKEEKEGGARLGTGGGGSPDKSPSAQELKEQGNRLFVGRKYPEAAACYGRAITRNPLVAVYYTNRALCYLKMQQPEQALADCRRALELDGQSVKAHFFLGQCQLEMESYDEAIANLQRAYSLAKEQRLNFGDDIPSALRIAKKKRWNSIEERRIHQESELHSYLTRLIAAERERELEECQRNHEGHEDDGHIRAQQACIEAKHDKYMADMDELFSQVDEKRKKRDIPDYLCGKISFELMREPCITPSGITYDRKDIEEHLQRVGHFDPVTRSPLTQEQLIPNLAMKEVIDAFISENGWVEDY
Tah1 (TPR-containing protein associated with Hsp90) (S. cerevisiae), sequence (P25638 whole entry): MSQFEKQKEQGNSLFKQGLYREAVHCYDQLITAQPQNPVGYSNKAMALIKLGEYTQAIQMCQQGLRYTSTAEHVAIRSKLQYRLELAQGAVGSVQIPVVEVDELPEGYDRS
C-terminal domain of Sti1 (cSti1), His-tagged (domain or fragment), sequence (P15705 133-581): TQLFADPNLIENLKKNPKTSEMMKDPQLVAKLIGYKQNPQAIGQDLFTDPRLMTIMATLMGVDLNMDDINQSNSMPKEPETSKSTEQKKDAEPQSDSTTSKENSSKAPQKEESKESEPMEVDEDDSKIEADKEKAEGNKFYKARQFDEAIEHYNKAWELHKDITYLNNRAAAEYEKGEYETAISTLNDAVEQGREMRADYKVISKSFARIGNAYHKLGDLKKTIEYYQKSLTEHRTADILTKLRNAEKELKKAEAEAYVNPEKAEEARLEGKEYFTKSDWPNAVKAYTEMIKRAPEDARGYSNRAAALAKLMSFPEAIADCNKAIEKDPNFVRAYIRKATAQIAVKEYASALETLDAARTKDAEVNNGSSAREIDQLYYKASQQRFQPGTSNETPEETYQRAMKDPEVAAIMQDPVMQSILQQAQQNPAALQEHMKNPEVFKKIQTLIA

| stoichiometry N [1] | pKd [2] | stoichiometry N [2] | pKd [3] | stoichiometry N [3] | Substance |
| --- | --- | --- | --- | --- | --- |
| 0.88 | – | – | – | – | C-terminal domain of Sti1 (cSti1), His-tagged (domain or fragment) |
| – | 4.83 | 1.1 | – | – | … decapeptide (Ssa1 C-terminal decapeptide, Val at -4 replaced by Ala) |
| 1.2 | – | – | 5.17 | 1.1 | mouse CHIP (C-terminal of Hsp70-interacting protein) (from UniProt Q9WUD1 1-304) (natural protein) |
| – | 5.48 | 0.89 | – | – | … decapeptide (yeast Hsp90 C-terminal decapeptide, Met at -4 replaced by Ala) |
| – | 5.38 | 0.98 | – | – | … decapeptide (Ssa1 C-terminal decapeptide, Val at -4 replaced by Met) |
| – | 6.12 | 0.81 | – | – | … decapeptide (yeast Hsp90 C-terminal decapeptide, TE replaced by Ala-Ala) |

| Substance | stoichiometry N [1] | pKd [2] | stoichiometry N [2] | pKd [3] | stoichiometry N [3] |
| --- | --- | --- | --- | --- | --- |
| … decapeptide (yeast Hsp90 C-terminal decapeptide, Met at -4 replaced by Val) | – | 5.01 | 1.1 | – | – |
